From the supplement of paper PMC7877785
± gives the uncertainty stated by the source.

Assay: self-splicing fitness, log relative to wild type (ln ratio); higher = more splicing; Tetrahymena group I intron in knt gene, E. coli kanamycin selection, DiMSum; sequences stand for … in CUCUCU…GGAGGGAAAAGUUAUCAGGCAUGCACCUGGUAGCUAGUCUUUAAACCAAUAGAUUGCAUCGGUUUAAAAGGCAAGACCGUCAAAUUGCGGGAAAGGGGUCAACAGCCGUUCAGUACCAAGUCUCAGGGGAAACUUUGAGAUGGCCUUGCAAAGGGUAUGGUAAUAAGCUGACGGACAUGGUCCUAACCACGCAGCCAAGUCCUAAGUCAACAGAUCUUCUGUUGAUAUGGAUGCAGUUCACAGACUAAAUGUCGGUCGGGGAAGAUGUAUUCUUCUCAUAAGAUAUAGUCGGACCUCUCCUUAAUGGGAGCUAGCGGAUGAAGUGAUGCAACACUGGAGCCGCUGGGAACUAAUUUGUAUGCGAAAGUAUAUUGAUUAGUUUUGGAGUACUCGUGGUCG
Summary of the method: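 Library with all eight P1ex-region intron nucleotides randomised, intron inside the knt kanamycin-resistance gene on pET-22b(+), in E. coli BL21(DE3). Cells grew overnight at 37°C or 30°C on LB agar with or without 25 μg/mL kanamycin (plus 100 μg/mL carbenicillin, 50 μM IPTG, 0.2% rhamnose), in six replicate transformations. Pooled colonies were amplicon-sequenced on Illumina HiSeq 2500. DiMSum fitness is the error-weighted combination of wild-type-normalised replicate fold changes, kanamycin versus none.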

Sequence	self-splicing fitness (ln) (30 °C)	self-splicing fitness (ln) (37 °C)
CCCCAGCAAUAUUACGAGAA	-3.4 ± 0.29	-2.37 ± 0.23
CCCCAGCAAUAUUACGAGCU	-3.85 ± 0.19	-2.85 ± 0.2
CCCCAGCAAUAUUACGAUAA		-1.49 ± 0.22
CCCCAGCAAUAUUACGAUCG	-2.85 ± 0.13	-0.917 ± 0.14
CCCCAGCAAUAUUACGCCAC	-3.09 ± 0.13	-0.923 ± 0.16
CCCCAGCAAUAUUACGCCCA	-2.11 ± 0.26	-1.37 ± 0.25
CCCCAGCAAUAUUACGCUAC	-2.29 ± 0.17	-2.05 ± 0.22
CCCCAGCAAUAUUACGGAUA	-3.92 ± 0.24	-2.65 ± 0.16
CCCCAGCAAUAUUACGGGGC	-2.95 ± 0.1	-3.43 ± 0.17
CCCCAGCAAUAUUACGGUAC	-3.84 ± 0.25	-2.66 ± 0.21
CCCCAGCAAUAUUACGGUCC	-3.86 ± 0.18	-2.9 ± 0.27
CCCCAGCAAUAUUACGUAAA	-3.91 ± 0.17	-2.89 ± 0.26
CCCCAGCAAUAUUACGUAAG	-3.18 ± 0.12	-1.33 ± 0.12
CCCCAGCAAUAUUACGUAAU	-3.53 ± 0.11	-1.67 ± 0.11
CCCCAGCAAUAUUACGUCGC	-3.65 ± 0.18	-2.34 ± 0.2
CCCCAGCAAUAUUACGUCUG	-3.45 ± 0.16	-2.04 ± 0.14
CCCCAGCAAUAUUACGUGGG	-3.83 ± 0.12	-2.81 ± 0.14
CCCCAGCAAUAUUACGUGUA	-3.17 ± 0.11	-2.75 ± 0.13
CCCCAGCAAUAUUACGUUAC	-4.86 ± 0.46	-2.37 ± 0.28
CCCCAGCAAUAUUACGUUGU	-3.93 ± 0.12	-2.77 ± 0.13
CCCGAGCAAUAUUACGACGA	-3.44 ± 0.43	-1.6 ± 0.2
CCCGAGCAAUAUUACGAGUA	-3.01 ± 0.16	-2.37 ± 0.14

Sequence	self-splicing fitness (ln) (30 °C)	self-splicing fitness (ln) (37 °C)
CCCGAGCAAUAUUACGCAUA	-3.7 ± 0.43	-2.06 ± 0.21
CCCGAGCAAUAUUACGCCAA	-3.35 ± 0.31	-2.12 ± 0.26
CCCGAGCAAUAUUACGCCUC		-1.77 ± 0.34
CCCGAGCAAUAUUACGCGCA	-3.47 ± 0.34	-1.28 ± 0.3
CCCGAGCAAUAUUACGCGUU	-4.43 ± 0.3	-2.22 ± 0.28
CCCGAGCAAUAUUACGCUGU	-4.16 ± 0.31	-2.62 ± 0.27
CCCGAGCAAUAUUACGGUGA	-2.19 ± 0.1	-1.32 ± 0.097
CCCGAGCAAUAUUACGGUGC	-4.61 ± 0.32	-2.77 ± 0.16
CCCGAGCAAUAUUACGGUGU	-3.28 ± 0.1	-1.67 ± 0.094
CCCGAGCAAUAUUACGGUUA	-2.05 ± 0.1	-1.36 ± 0.1
CCCGAGCAAUAUUACGUAGG	-2.04 ± 0.11	-1.16 ± 0.14
CCCGAGCAAUAUUACGUAUA	-2.79 ± 0.17	-2.82 ± 0.26
CCCGAGCAAUAUUACGUCCA	-3.48 ± 0.25	-2.26 ± 0.24
CCCGAGCAAUAUUACGUCCC	-2.8 ± 0.24	-2.3 ± 0.49
CCCGAGCAAUAUUACGUGAC		-2.41 ± 0.3
CCCGAGCAAUAUUACGUUAG	-3.6 ± 0.17	-2.8 ± 0.22
CCCGAGCAAUAUUACGUUUC	-3.44 ± 0.2	-3.54 ± 0.24
CCCUAGCAAUAUUACGAAGC	-2.97 ± 0.43	-2.92 ± 0.27
CCCUAGCAAUAUUACGACAA	-3.22 ± 0.35	-2.1 ± 0.28
CCCUAGCAAUAUUACGACGG	-2.7 ± 0.14	-2.87 ± 0.34
CCCUAGCAAUAUUACGACUA	-2.51 ± 0.29	-2.21 ± 0.21
